Reference: PMC7083075 (Cell, 2019)

Target: T1, hKCNQ1EM (human KCNQ1, residues 76-620) (human, UniProt P51787-1 76-620)
T1 sequence (looked up): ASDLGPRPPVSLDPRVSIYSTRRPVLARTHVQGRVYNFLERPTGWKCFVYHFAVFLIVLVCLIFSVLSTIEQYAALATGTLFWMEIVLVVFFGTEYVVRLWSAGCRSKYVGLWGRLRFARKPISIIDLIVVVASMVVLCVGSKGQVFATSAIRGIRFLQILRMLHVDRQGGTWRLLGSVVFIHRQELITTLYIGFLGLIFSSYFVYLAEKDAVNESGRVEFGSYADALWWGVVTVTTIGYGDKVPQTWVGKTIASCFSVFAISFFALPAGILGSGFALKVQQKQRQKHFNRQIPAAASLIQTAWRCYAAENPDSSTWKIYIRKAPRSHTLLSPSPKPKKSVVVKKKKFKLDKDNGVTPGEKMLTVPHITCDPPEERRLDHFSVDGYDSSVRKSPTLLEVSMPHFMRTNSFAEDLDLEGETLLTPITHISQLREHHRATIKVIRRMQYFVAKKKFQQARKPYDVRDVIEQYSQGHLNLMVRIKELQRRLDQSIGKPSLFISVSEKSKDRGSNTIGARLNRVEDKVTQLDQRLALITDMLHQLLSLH
Test: cryo-EM structure

B1: KCNE3 (full-length human, N-terminal mCherry2) (natural protein, UniProt Q9Y6H6 1-103, looked up)
chain: METTNGTETWYESLHAVLKALNATLHSNLLCRPGPGLGPDNQTEERRASLPGRDDNSYMYILFVMFLFAVTVGSLILGYTRSRKVDKRSDPYHVYIKNRVSMI
stoichiometry N: 4 KCNE3 per KCNQ1 tetramer
